Marks after values point to notes of the source that are not given here.
What was measured:
[1] = test system: KT-14 xenograft (Rhabdoid); experiment: PPTP in vivo xenograft KT-14; design: key to EFS activity notation (high, intermediate, indeterminate): high (!); intermediate (#); indeterminate (^); settings: KT-14 (Rhabdoid) xenograft, 0.5 mg per mouse ip twice weekly for four weeks
Experimental: (§1) The PPTP includes a molecularly characterized in vitro panel of cell lines (n=27) and in vivo panel of xenografts (n=61) representing most of the common types of childhood solid tumors and childhood ALL (acute lymphoblastic leukemia). LCF/HCA anti-IGF1R antibody was tested against the PPTP in vitro panel at concentrations ranging from 0.01 nM to 100 nM; and was tested against the PPTP in vivo panel at a dose of 0.5 mg per mouse administered twice weekly for four weeks via intraperitoneal injection. Three measures of antitumor activity were used: 1) response criteria modeled after the clinical setting; 2) treated-to-control (T/C) tumor volume at day 21; and 3) a time to event (4-fold increase in tumor volume) measure based on the median EFS of treated and control lines (intermediate activity required EFS (event-free survival) T/C>2, and high activity additionally required a net reduction in median tumor volume at the end of the experiment).
(§2) Stage 1 testing involved testing an agent across the entire PPTP panel of childhood cancer xenograft lines at its maximum tolerated dose (MTD) or at a dose selected based on PK/PD (pharmacokinetic/pharmacodynamic) studies using adult preclinical models.
(§3) In vivo solid tumor testing: For each xenograft line, 10 mice bearing subcutaneous (SC) tumors initiated treatment when the tumors were between 0.2-0.5 cm^3 in volume. Two perpendicular tumor diameters were measured at once weekly intervals with digital vernier calipers. Assuming tumors to be spherical, volumes were calculated from the formula (π/6)×d3, where d represented the mean diameter.
(§4) Drug: LCF/HCA was dissolved in 20mM sodium acetate pH 5 buffer containing 150 mM sodium chloride, and administered intraperitoneally twice weekly for 4 consecutive weeks at a dose of 0.5 mg per animal. The antibody was provided to each testing site in coded vials for blinded testing according the PPTP's standard operating procedures.
(§5) Median Group Response: Each individual mouse in each treatment group was assigned a response score (see Tables above) and a median score for the treatment group was calculated and then each treatment group was assigned an overall response according to the table below.
(§6) Statistical Methods: Event-free survival (EFS) distributions of each treatment group were compared to the EFS distribution of the respective control group using the exact log rank test. P-values were 2-sided & were not adjusted for multiple comparisons given the exploratory nature of this study. P-values<0.05 were considered to be significant.

[2] = test system: CHLA258 xenograft (Ewings); experiment: PPTP in vivo xenograft CHLA258; design: key to EFS activity notation (high, intermediate, indeterminate): high (!); intermediate (#); indeterminate (^)
Experimental: as §1, §2, §3, §4, §5, §6

[3] = test system: Rh41 xenograft (ALV Rhabdomyosarcoma); experiment: PPTP in vivo xenograft Rh41
From the text: The PPTP includes a molecularly characterized in vitro panel of cell lines (n=27) and in vivo panel of xenografts (n=61) representing most of the common types of childhood solid tumors and childhood ALL (acute lymphoblastic leukemia).
as §2, §3
The antibody was provided to each testing site in coded vials for blinded testing according the PPTP's standard operating procedures.
as §5, §6

[4] = test system: Rh18 xenograft (EMB Rhabdomyosarcoma); experiment: PPTP in vivo xenograft Rh18
Experimental: as §1, §2, §3
(§7) Drug: LCF/HCA was dissolved in 20mM sodium acetate pH 5 buffer containing 150 mM sodium chloride, and administered intraperitoneally twice weekly for 4 consecutive weeks at a dose of 0.5 mg per animal. […]
(§8) Median Group Response: Each individual mouse in each treatment group was assigned a response score (see Tables above) and a median score for the treatment group was calculated and then each treatment group was assigned an overall response according to the table below. […]

[5] = test system: NB-SD xenograft (Neuroblastoma); experiment: PPTP in vivo xenograft NB-SD; design: key to EFS activity notation (high, intermediate, indeterminate): high (!); intermediate (#); indeterminate (^)
Experimental: as §1, §2, §3, §4, §5, §6

[6] = test system: NB-1771 xenograft (Neuroblastoma); experiment: PPTP in vivo xenograft NB-1771; settings: NB-1771 (Neuroblastoma) xenograft, 0.5 mg per mouse ip twice weekly for four weeks
Experimental: as §1, §2, §3, §7, §8

[7] = test system: CHLA-79 xenograft (Neuroblastoma); experiment: PPTP in vivo xenograft CHLA-79; design: key to EFS activity notation (high, intermediate, indeterminate): high (!); intermediate (#); indeterminate (^); settings: CHLA-79 (Neuroblastoma) xenograft, 0.5 mg per mouse ip twice weekly for four weeks
Experimental: as §1, §2, §3, §4, §5, §6

[8] = test system: OS-1 xenograft (Osteosarcoma); experiment: PPTP in vivo xenograft OS-1; design: key to EFS activity notation (high, intermediate, indeterminate): high (!); intermediate (#); indeterminate (^); settings: OS-1 (Osteosarcoma) xenograft, 0.5 mg per mouse ip twice weekly for four weeks
Experimental: as §1, §2, §3, §7, §8

[9] = test system: OS-31 xenograft (Osteosarcoma); experiment: PPTP in vivo xenograft OS-31; settings: OS-31 (Osteosarcoma) xenograft, 0.5 mg per mouse ip twice weekly for four weeks
Experimental: as §1, §2, §3, §7, §8

[10] = test system: ALL-3 xenograft (ALL B-precursor); experiment: PPTP in vivo leukemia xenograft ALL-3; settings: ALL-3 (ALL B-precursor) xenograft; 0.5 mg per mouse ip twice weekly for four weeks
Experimental: (§9) The PPTP includes a molecularly characterized in vitro panel of cell lines (n=27) and in vivo panel of xenografts (n=61) representing most of the common types of childhood solid tumors and childhood ALL (acute lymphoblastic leukemia). LCF/HCA anti-IGF1R antibody was tested against the PPTP in vitro panel at concentrations ranging from 0.01 nM to 100 nM; and was tested against the PPTP in vivo panel at a dose of 0.5 mg per mouse administered twice weekly for four weeks via intraperitoneal injection. […]
(§10) In vivo acute lymphoblastic leukemia testing: For each xenograft line, 8 mice were inoculated with 3-5×10^6 mononuclear cells purified from the spleens of secondary recipient mice. Engraftment was monitored weekly by flow cytometry, and treatment was initiated when the proportion of human CD45+ cells in the peripheral blood reached 1%. The proportion of human CD45+ cells in the peripheral blood was monitored weekly throughout the course of treatment. […]
as §8

[11] = test system: ALL-4 xenograft (ALL B-precursor); experiment: PPTP in vivo leukemia xenograft ALL-4; settings: ALL-4 (ALL B-precursor) xenograft; 0.5 mg per mouse ip twice weekly for four weeks
Experimental: as §9, §10, §8

[12] = test system: ALL-17 xenograft (ALL B-precursor); experiment: PPTP in vivo leukemia xenograft ALL-17; design: key to EFS activity notation (high, intermediate, indeterminate): high (!); intermediate (#); indeterminate (^); settings: ALL-17 (ALL B-precursor) xenograft; 0.5 mg per mouse ip twice weekly for four weeks
Experimental: as §1, §2
In vivo acute lymphoblastic leukemia testing: For each xenograft line, 8 mice were inoculated with 3-5×10^6 mononuclear cells purified from the spleens of secondary recipient mice. Engraftment was monitored weekly by flow cytometry, and treatment was initiated when the proportion of human CD45+ cells in the peripheral blood reached 1%. The proportion of human CD45+ cells in the peripheral blood was monitored weekly throughout the course of treatment.
as §4, §5, §6

[13] = 0.5 mg per mouse ip twice weekly for four weeks
[14] = day 21, 0.5 mg per mouse ip twice weekly for four weeks

B1: LCF/HCA: fully human anti-IGF1R antibody comprising the mature 19D12/15H12 light chain F (LCF) and mature heavy chain A (HCA) (antibody, V domains shown)
VH: EVQLVQSGGGLVHPGGSLRLSCAASGFTFSSFAMHWVRQAPGKGLEWISVIDTRGATYYADSVKGRFTISRDNAKNSLYLQMNSLRAEDMAVYYCARLGNFYYGMDVWGQGTTVTVSS
VL: EIVLTQVPDFQSVTPKEKVTITCRASQSIGSSLHWYQQKPDQSPKLLIKYASQSLSGVPSRFSGSGSGTDFTLTINSLEAEDAAAYYCHQSSRLPHTFGGGTKVEIKRT
- EFS T/C [1]: > 3.3
- EFS activity notation (high, intermediate, indeterminate) [1]: #
- Median Final RTV [1]: 1.6#
- Overall Group Response [1]: PD2 (1 < MS ≦ 3)
- Tumor Volume T/C ([1]; day 21): 0.6
- EFS T/C [2, 13]: 4.2
- EFS activity notation (high, intermediate, indeterminate) [2, 13]: #
- Median Final RTV [2, 13]: >4#
- Overall Group Response [2, 13]: PD2 (1 < MS ≦ 3)
- Tumor Volume T/C [2, 14]: 0.29
- EFS T/C [3, 13]: 1.1
- Median Final RTV [3, 13]: >4
- Tumor Volume T/C [3, 14]: 0.65
- EFS T/C [4, 13]: 1
- Median Final RTV [4, 13]: >4
- Tumor Volume T/C [4, 14]: 0.74
- EFS T/C [5, 13]: > 1.8
- EFS activity notation (high, intermediate, indeterminate) [5, 13]: ^
- Median Final RTV [5, 13]: 3.7^
- Overall Group Response [5, 13]: PD2 (1 < MS ≦ 3)
- Tumor Volume T/C [5, 14]: 0.41
- EFS T/C [6]: 1.1
- Median Final RTV [6]: >4
- Tumor Volume T/C ([6]; day 21): 0.64
- EFS T/C [7]: 2.1
- EFS activity notation (high, intermediate, indeterminate) [7]: #
- Median Final RTV [7]: 3.9#
- Overall Group Response [7]: PD2 (1 < MS ≦ 3)
- Tumor Volume T/C ([7]; day 21): 0.69
- EFS T/C [8]: > 1.3
- EFS activity notation (high, intermediate, indeterminate) [8]: ^
- Tumor Volume T/C ([8]; day 21): 0.16
- EFS T/C [9]: 1.3
- Median Final RTV [9]: >4
- Tumor Volume T/C ([9]; day 21): 0.88
- EFS T/C [10]: 0.4
- Median Final RTV [10]: >25
- EFS T/C [11]: 0.8
- Median Final RTV [11]: >25
- EFS T/C [12]: 3.1
- EFS activity notation (high, intermediate, indeterminate) [12]: #
- Median Final RTV [12]: >25#
- Overall Group Response [12]: PD2 (1 < MS ≦ 3)

Source: patent publication US20110262525A1, “METHODS OF TREATMENT” (SCHERING CORPORATION, priority 2006, published 2011)
